Experimental data from the supplement of paper PMC9112550, “Optimization of the antimicrobial peptide Bac7 by deep mutational scanning” (BMC Biology, 2022).

Tested on: Escherichia coli TOP10
Assay: shrunken log2 fold change of peptide-encoding DNA abundance (4.5 h post-induction vs induction); higher = less antimicrobial activity (less host growth inhibition)
Details: time post-induction: 4.5 h; library: site-saturation at positions 5, 18, 19, 20
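Further: peptides expressed intracellularly from a pBAD plasmid library in pooled LB shake-flask culture, induced with 0.3% L-arabinose, DNA abundance read by NGS, three biological replicates, DESeq2 with apeglm shrinkage.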

In order of falling “shrunken log2 fold change” value:
1. RRIRGRPPRLPRPRPRPPADPRP  1.59
2. RRIRMRPPRLPRPRPRPDAFPRP  1.47
3. RRIRWRPPRLPRPRPRPQGPPRP  1.32
4. RRIRVRPPRLPRPRPRPCCKPRP  0.905
5. RRIRSRPPRLPRPRPRPDEEPRP  0.895
6. RRIRPRPPRLPRPRPRPREGPRP  0.891
7. RRIRGRPPRLPRPRPRPACHPRP  0.889
8. RRIRIRPPRLPRPRPRPRMRPRP  0.791
9. RRIRARPPRLPRPRPRPTCTPRP  0.764
10. RRIRARPPRLPRPRPRPTPQPRP  0.745
11. RRIRWRPPRLPRPRPRPEPWPRP  0.725
12. RRIRARPPRLPRPRPRPARMPRP  0.724
13. RRIRGRPPRLPRPRPRPWEQPRP  0.724
14. RRIRWRPPRLPRPRPRPVHTPRP  0.627
15. RRIRARPPRLPRPRPRPPFFPRP  0.603
16. RRIRGRPPRLPRPRPRPEHGPRP  0.602
17. RRIRQRPPRLPRPRPRPAPQPRP  0.522
18. RRIRKRPPRLPRPRPRPSLQPRP  0.447
19. RRIRMRPPRLPRPRPRPKKHPRP  0.405
20. RRIRMRPPRLPRPRPRPQRPPRP  0.389
21. RRIRKRPPRLPRPRPRPIFCPRP  0.387
22. RRIRMRPPRLPRPRPRPRCCPRP  0.373
23. RRIRKRPPRLPRPRPRPTSHPRP  0.37
24. RRIRQRPPRLPRPRPRPRANPRP  0.367
25. RRIRRRPPRLPRPRPRPDTPPRP  0.342
26. RRIRDRPPRLPRPRPRPALMPRP  0.333
27. RRIRGRPPRLPRPRPRPGRHPRP  0.314
28. RRIRMRPPRLPRPRPRPELGPRP  0.276
29. RRIRPRPPRLPRPRPRPPIAPRP  0.27
30. RRIRVRPPRLPRPRPRPDHAPRP  0.27
31. RRIRWRPPRLPRPRPRPRCPPRP  0.264
32. RRIRARPPRLPRPRPRPILDPRP  0.229
33. RRIRRRPPRLPRPRPRPMNPPRP  0.212
34. RRIRARPPRLPRPRPRPGNPPRP  0.167
35. RRIRNRPPRLPRPRPRPDWLPRP  0.156
36. RRIRKRPPRLPRPRPRPNFRPRP  0.155
37. RRIRMRPPRLPRPRPRPNDKPRP  0.145
38. RRIRSRPPRLPRPRPRPQPMPRP  0.128
39. RRIRQRPPRLPRPRPRPDLLPRP  0.126
40. RRIRKRPPRLPRPRPRPDSAPRP  0.115
41. RRIRFRPPRLPRPRPRPKVEPRP  0.114
42. RRIRWRPPRLPRPRPRPFFDPRP  0.0993
43. RRIRRRPPRLPRPRPRPVASPRP  0.0932
44. RRIRTRPPRLPRPRPRPIWSPRP  0.0914
45. RRIRERPPRLPRPRPRPLHCPRP  0.0821
46. RRIRIRPPRLPRPRPRPVCEPRP  0.0639
47. RRIRQRPPRLPRPRPRPMQFPRP  0.0624
48. RRIRFRPPRLPRPRPRPTGFPRP  0.0467
49. RRIRYRPPRLPRPRPRPRNGPRP  0.0466
50. RRIRCRPPRLPRPRPRPMDTPRP  0.0459
51. RRIRKRPPRLPRPRPRPLKMPRP  0.0436
52. RRIRFRPPRLPRPRPRPCVWPRP  0.0426
53. RRIRKRPPRLPRPRPRPYESPRP  0.0419
54. RRIRTRPPRLPRPRPRPIDIPRP  0.0364
55. RRIRWRPPRLPRPRPRPIETPRP  0.0333
56. RRIRRRPPRLPRPRPRPDHSPRP  0.0322
57. RRIRQRPPRLPRPRPRPEVDPRP  0.0316
58. RRIRMRPPRLPRPRPRPGKIPRP  0.0308
59. RRIRWRPPRLPRPRPRPHKKPRP  0.028
60. RRIRLRPPRLPRPRPRPADLPRP  0.0231
61. RRIRKRPPRLPRPRPRPWPNPRP  0.0221
62. RRIRNRPPRLPRPRPRPKSVPRP  0.0186
63. RRIRTRPPRLPRPRPRPSRKPRP  0.0182
64. RRIRERPPRLPRPRPRPVWVPRP  0.0145
65. RRIRYRPPRLPRPRPRPNEMPRP  0.0143
66. RRIRDRPPRLPRPRPRPRECPRP  0.0105
67. RRIRHRPPRLPRPRPRPMRRPRP  0.00585
68. RRIRMRPPRLPRPRPRPYKLPRP  0.00411
69. RRIRHRPPRLPRPRPRPDMYPRP  -0.00022
70. RRIRQRPPRLPRPRPRPWSNPRP  -0.00145
71. RRIRYRPPRLPRPRPRPTFQPRP  -0.0033
72. RRIRQRPPRLPRPRPRPWWKPRP  -0.00542
73. RRIRNRPPRLPRPRPRPMVHPRP  -0.00783
74. RRIRSRPPRLPRPRPRPEDKPRP  -0.00968
75. RRIRIRPPRLPRPRPRPFRWPRP  -0.00968
76. RRIRHRPPRLPRPRPRPQRFPRP  -0.0098
77. RRIRDRPPRLPRPRPRPLELPRP  -0.014
78. RRIRQRPPRLPRPRPRPKEGPRP  -0.0167
79. RRIRERPPRLPRPRPRPPSIPRP  -0.0171
80. RRIRERPPRLPRPRPRPTSDPRP  -0.0201
81. RRIRHRPPRLPRPRPRPNVPPRP  -0.0223
82. RRIRYRPPRLPRPRPRPMVIPRP  -0.0231
83. RRIRPRPPRLPRPRPRPDVIPRP  -0.0251
84. RRIRMRPPRLPRPRPRPCRHPRP  -0.0252
85. RRIRYRPPRLPRPRPRPKWSPRP  -0.0252
86. RRIRVRPPRLPRPRPRPLHSPRP  -0.0269
87. RRIRIRPPRLPRPRPRPNREPRP  -0.0355
88. RRIRRRPPRLPRPRPRPSVLPRP  -0.0526
89. RRIRKRPPRLPRPRPRPTFIPRP  -0.0546
90. RRIRLRPPRLPRPRPRPWVDPRP  -0.0575
91. RRIRARPPRLPRPRPRPCSYPRP  -0.0595
92. RRIRTRPPRLPRPRPRPIKMPRP  -0.0667
93. RRIRDRPPRLPRPRPRPIWGPRP  -0.0681
94. RRIRHRPPRLPRPRPRPAGYPRP  -0.0739
95. RRIRIRPPRLPRPRPRPAWCPRP  -0.0802
96. RRIRTRPPRLPRPRPRPQDLPRP  -0.0848
97. RRIRARPPRLPRPRPRPQWHPRP  -0.0862
98. RRIRDRPPRLPRPRPRPRWFPRP  -0.0867
99. RRIRARPPRLPRPRPRPFSWPRP  -0.0923
100. RRIRQRPPRLPRPRPRPGKSPRP  -0.103
101. RRIRGRPPRLPRPRPRPMHPPRP  -0.104
102. RRIRHRPPRLPRPRPRPGILPRP  -0.111
103. RRIRPRPPRLPRPRPRPSNGPRP  -0.113
104. RRIRRRPPRLPRPRPRPISVPRP  -0.115
105. RRIRVRPPRLPRPRPRPEISPRP  -0.122
106. RRIRTRPPRLPRPRPRPGANPRP  -0.124
107. RRIRCRPPRLPRPRPRPHWKPRP  -0.126
108. RRIRHRPPRLPRPRPRPKNPPRP  -0.155
109. RRIRARPPRLPRPRPRPNLAPRP  -0.179
110. RRIRIRPPRLPRPRPRPSEEPRP  -0.188
111. RRIRERPPRLPRPRPRPKCFPRP  -0.193
112. RRIRKRPPRLPRPRPRPYYQPRP  -0.194
113. RRIRNRPPRLPRPRPRPCSTPRP  -0.194
114. RRIRNRPPRLPRPRPRPHLQPRP  -0.198
115. RRIRSRPPRLPRPRPRPWEQPRP  -0.208
116. RRIRYRPPRLPRPRPRPYTLPRP  -0.213
117. RRIRLRPPRLPRPRPRPCLAPRP  -0.219
118. RRIRCRPPRLPRPRPRPREYPRP  -0.22
119. RRIRLRPPRLPRPRPRPWIMPRP  -0.224
120. RRIRPRPPRLPRPRPRPWGNPRP  -0.225
121. RRIRPRPPRLPRPRPRPIYSPRP  -0.225
122. RRIRYRPPRLPRPRPRPIFPPRP  -0.23
123. RRIRCRPPRLPRPRPRPIMEPRP  -0.231
124. RRIRARPPRLPRPRPRPCYQPRP  -0.232
125. RRIRQRPPRLPRPRPRPFGFPRP  -0.233
126. RRIRVRPPRLPRPRPRPHHMPRP  -0.26
127. RRIRVRPPRLPRPRPRPFSNPRP  -0.28
128. RRIRLRPPRLPRPRPRPTDYPRP  -0.286
129. RRIRARPPRLPRPRPRPHVKPRP  -0.289
130. RRIRWRPPRLPRPRPRPFAYPRP  -0.304
131. RRIRIRPPRLPRPRPRPKFMPRP  -0.321
132. RRIRTRPPRLPRPRPRPNKVPRP  -0.326
133. RRIRFRPPRLPRPRPRPVSKPRP  -0.358
134. RRIRCRPPRLPRPRPRPHWQPRP  -0.365
135. RRIRIRPPRLPRPRPRPWCAPRP  -0.377
136. RRIRERPPRLPRPRPRPKLKPRP  -0.387
137. RRIRKRPPRLPRPRPRPHYTPRP  -0.395
138. RRIRCRPPRLPRPRPRPLNRPRP  -0.413
139. RRIRTRPPRLPRPRPRPYNNPRP  -0.429
140. RRIRNRPPRLPRPRPRPRHYPRP  -0.446
141. RRIRFRPPRLPRPRPRPKEYPRP  -0.468
142. RRIRWRPPRLPRPRPRPSRYPRP  -0.483
143. RRIRQRPPRLPRPRPRPYNPPRP  -0.529
144. RRIRERPPRLPRPRPRPTEWPRP  -0.551
145. RRIRLRPPRLPRPRPRPGSNPRP  -0.57
146. RRIRTRPPRLPRPRPRPYFKPRP  -0.577
147. RRIRCRPPRLPRPRPRPHMPPRP  -0.585
148. RRIRCRPPRLPRPRPRPFYFPRP  -0.593
149. RRIRTRPPRLPRPRPRPYWMPRP  -0.707
150. RRIRFRPPRLPRPRPRPNMQPRP  -0.846
